Assay results from the supplement of paper PMC10567573.

B1: GLTSCR2 (parent)
chain: LARRRRRRQARREAEADKPRRLGR

Variants of: B1
Assay: protein stability index of a GFP-peptide fusion (GPS, HEK-293T) (PSI 1-6); higher = more stable
Conditions: c terminus: a fixed tail appended
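Note: lentivirally expressed fusions sorted by FACS into six bins by GFP to DsRed ratio, PSI derived from sequencing read proportions per bin multiplied by bin number.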

Protein stability index of substitutions, site by site:
R11: G 3.7, H 4.74, C 4.64, S 4.74, E 4.87, M 4.47, V 4.91, Y 4.95, A 4.53, N 3.94, L 5.4, W 4.53, F 4.09, I 4.8, P 4.62, T 5.06, K 4.52, Q 4.26
R6: F 3.93, Q 5.03, A 5.21, L 4.6, V 3.6, P 4.57, S 4.86, N 5.07, K 4.79, Y 4.13, I 3.98, W 4.74, E 4.03, T 4.69, G 4.55, H 4.28, D 4.96, C 4.5, M 4.27
R3: S 4.91, V 4.35, Y 3.84, T 4.84, W 4.4
R8: H 4.75, C 3.8, M 4.98, K 4.3, F 4.64, E 4.83, P 4.44, G 4.25, A 4.98, S 5.01, T 4.21, I 4.3, W 4.48, Q 4.23, L 3.48, N 4.48, D 4.83, V 4.18, Y 4.15
R5: F 4.76, E 5.13, M 4.36, N 5.32, Y 4.45, L 3.81, W 4.12, T 4.15, A 4.69, D 4.52, Q 4.33, H 4.18, S 4.42, V 4.54, P 5.1, C 4.21, K 4.54, G 4.36, I 3.79
A10: H 5.1, V 4.57, W 4.73, Q 4.95, T 4.21, R 4.95, G 4.25, K 4.02, N 4.6, L 4.38, C 5.01, S 4.66, P 5.19, Y 4.9, F 4.47, E 4.55, I 4.55, M 5.21, D 3.92
R12: K 4.55, D 4.73, E 4.29, M 4.87, F 4.17, H 4.74, A 4.71, N 4.11, G 4.45, C 4.31, L 3.76, I 4.72
R4: G 4.3, P 4.92, C 4.34, V 3.97, T 4.67, S 4.17, E 5.25, F 3.75, N 4.63, W 3.11, Q 4.18, M 4.57, L 4.59, H 4.35, I 4.46, A 4.39, D 4.64, K 3.13, Y 4.16
Q9: E 4.38, N 4.47, L 4.66, G 4.46, W 3.71, C 4.4, S 4.57, Y 4.33, T 5.12, R 4.95, F 4.27, A 4.17, D 4.44, I 4.75, K 4.33, M 3.79, H 4.73, P 4.85, V 4.22
R7: Y 4.64, L 4.76, A 4.18, S 4.66, C 4.83, V 4.6, W 4.63, T 4.76, G 4.71, E 4.93, F 4.28, K 5.11, N 4.83, I 4.41, Q 4.19, D 4.88, M 5.22, H 4.73
